The source of these data is patent US7179464.

For experiment [1], the target named is soluble human IL-5R α (shIL-5R α) (human) (UniProt Q01344). Nature of the experiment: discussion of the ELISA results; assay not given. (In an ELISA, binding on a coated surface is turned into a signal by an enzyme label.)
For experiment [2] the target is unchanged. Nature of the experiment: ELISA method 2: purified antibody on plate-coated shIL-5R α, anti-human IgG detection.

soluble human IL-5R α (shIL-5R α) (human), sequence (Q01344 other isoform, or with tags, fused parts or gaps limits assumed, form in doubt): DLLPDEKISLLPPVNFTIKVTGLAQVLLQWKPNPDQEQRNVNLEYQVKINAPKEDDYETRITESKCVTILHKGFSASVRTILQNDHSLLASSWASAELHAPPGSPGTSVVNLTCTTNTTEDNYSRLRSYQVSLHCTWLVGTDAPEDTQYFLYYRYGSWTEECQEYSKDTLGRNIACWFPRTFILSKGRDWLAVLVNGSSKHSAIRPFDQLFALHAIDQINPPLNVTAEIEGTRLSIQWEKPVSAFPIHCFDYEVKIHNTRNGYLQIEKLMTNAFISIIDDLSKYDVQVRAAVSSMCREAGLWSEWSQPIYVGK

B1: anti-human IL-5R α chain human CDR-grafted antibody KM8397 (antibody, human IgG1, V domains shown)
VH: EVQLVQSGAEVKKPGASVKVSCKASGYTFTSYVIHWVRQAPGQGLEWMGYINPYNDGTKYNERFKGRVTITADTSTSTAYMELSSLRSEDTAVYYCAREGIRYYGLLGDYWGQGTLVTVSS
VL: DIQMTQSPSSLSASVGDRVTITCGTSEDIINYLNWYQQKPGKAPKLLIYHTSRLQSGVPSRFSGSGSGTDFTLTISSLQPEDFATYYCQQGYTLPYTFGQGTKVEIK
For B1, the activity relative to KM1259 (fold of KM1259) in experiment [1] is 0.5. For the same molecule, the reactivity relative to KM1399 (fold of KM1399) in experiment [2] was determined as 0.5.
